Substrate: O=c1ccn([C@@H]2O[C@H](COP(=O)(O)O)[C@@H](O)[C@H]2O)c(=O)[nH]1
Assay: purified protein
Format: biochemical, Thermus thermophilus
Conditions: without GTP, 1 mM ATP, 5 mM MgCl2, 100 mM KCl, 50 mM Tris-HCl pH 7.5, 25°C

B1: ttUMPK (UMP kinase of Thermus thermophilus HB8) (Thermus thermophilus HB8) (protein)
chain: MKYKRVLLKLSGEFLTRNGFGIEPEATQALAREIKAAYDTGVQLAIVIGAGNLWRGARQGVGMDRATADYIGMLATIMNALALQDALESLGVPTRVQTALTITQVAEPYIRRRALRHLEKERIVIFGGGTGNPFFSTDTAAALRALEVGAEVVLMAKNKVDGVYSDDPRKNPEAVRFDELTYLEVLNRGLQVMDTTAITLCMEAGLPIVVFDIFKPGALVGIIQGEKVGTLIH
notes: full-length gene in pET-11a (NdeI/BamHI), no tag mentioned; expressed in E. coli BL21(DE3), heat-treated; homohexamer by size exclusion
Km: 46 µM | kcat: 13 s⁻¹

Source: publication PMC12404492, “The crystal structure of Thermus thermophilus UMP kinase complexed with a phosphoryl group acceptor and donor” (PLOS One, 2025)
